Data as given in paper PMC6908506, “Development of Foot-and-Mouth Disease Virus-Neutralizing Monoclonal Antibodies Derived From Plasmablasts of Infected Cattle and Their Germline Gene Usage” (Frontiers in Immunology, 2019).

B1: F64 (antibody, V domains shown)
VH: QVQLRESGPSLVKPSQTLSLTCTVSGLSLNSIGVIWVRQAPGKALEWVGGINSGGSTYYKSALKSRLSITKDNSNSQVSLSLNSVTPEDTATYYCATYVGDFWGQGLLVTVSS
VL: QAVLTQPSSVSGSLGQRISITCSGSSSNIGRYNVGWYQQVPGSGLRTIIYGSSSRPSGVPDRFSGSKSGNTATLTISSLQAEDEADYFCAADDNSNSTAVFGSGTTLNVL
B2: F115 (antibody)
VH: QVQLRESGPSLVKPSQTLSLTCTASGFSLSDKTLGWVRQAPGKALEWLGSMDSGGNTGYNPDLKSRLSITKDNSRSQVSLSVSSVTTEDSATYYCTTTHQISRKEQRCPDGCRVNGWWGDSGCDDDTYCRYNYWGNCIRCTYVYTYEFHVDAWGQGLLVTVSS
VL: QAVLTQPSSVSGSLGQRVSITCSGSSSNVENGYVSWYQLIPGSTPKTLIYGDTSRASGVPARFSGSRSGNTATLTISSLQAEDEADYFCASAEDTSSNAVFGSGTTLTVL
B3: F104 (antibody, V domains shown)
VH: QVQLRESGPSLVKPSQTLSLTCTVSGFSLSSYDVGWVRQAPGKGLECLGGIGNRGNTKYNPALKSRLSITKDNSKSQVSLSLSSVTSEDTATYYCTKSYGGNDVYDCYDSEYWGQGLLVTVSS
VL: QAVLTQPSSVSGSLGQRVSITCSGSSNNIGRYSVGWYQQVPGSGLRTIIYISSSRPSGVPDRFSGSKSGNTATLTISSLQAEDEADYFCATNDYSSDTTIFGSGTTLTVL
B4: F36 (antibody, V domains shown)
VH: QVQLRESGPSLVKPSQTLSLTCTVSGFSLSSYAVNWVRQAPGKALECLGSIGSGGSTGYNPALKSRLSITKDNSKSQVSLSVSSVTPEDTATYYCAKTTYSGDSRTFYGCYGSGSAYETYVDTWGQGLLVTVSS
VL: QAVLTQPSSVSGSLGQRVSITCSGSSNNIGNNGVVWYQQVPGSGLRTIIYGSTGRPSGVPDRFSGSKSGNTATLTISSLQAEDEADYFCGTADDSSSIAVFGSGTTLTVL
B5: F56 (antibody, V domains shown)
VH: QVQLRESGPSLVKPSQTLSLTCTFSGFSLSSNGVLWVRQAPGKALEWLGGMCRSGSTNFNPALKSRLSITKNNSKSQVSLSVSSVTPEDTATYYCTTGFDLDCDWGYEDSTWGQGLLVTVSS
VL: QAVLTQPSSVSGSLGQRVSITCSGSSSNIGNDDVGWYQQIPGSGLRTIIYGNNSRPSGVPDRFSGSKSGNTATLTISSLQAEDEADYFCASADDNTSTAVFGSGTTLTVL
B6: F45 (antibody, V domains shown)
VH: QVQLRESGPSLVKPSQILSLTCTVSGFSLSSNGAVWVRQAPGKTLEWIGGISVDGSVRYNPALNSRLSITKDNSKSQVSLSMTSATPEDTATYFCVRCFSGYSPNSVCSTADYVDAWGQRLLVTVSS
VL: QAVVNQPSSVSGSLGQRVFITCSGSSSNVGNGYVIWYQLIPGSGPTTLIYGDASRPSGVPDRFSGSRSGNTATLTIISLQAEDEEDYFCASAEDSSTNAVFGSGTTLTVL
B7: F39 (antibody, V domains shown)
VH: QVQLRESGLSLVKPSQTLSLTCTVSGFSLSSYGVGWVRQAPGKALECLGGITSGGSADYNPALKSRLSITKDNSKSQVSLSLSSVTTEDTATYYCGKTSRFYGLVCNVDFYDDSEYVDAWGQGLLVTVSS
VL: QAVLTQPSSVSGSLGQRVSITCFGSSNDVGYGDYVSWFQQIPGSAPRMIIYGATRRPSGVPDRFSGSRSGNTATLTINSLQAEDEADYFCASPVGLGSGYPIFGSGTALTVL

Target: T1, FMDV O/Mya/98 146S antigen (Foot-and-mouth disease virus serotype …, UniProt G8JKC2, strain)
T1 construct: also called purified virus antigen; copies: + + +
Test: immunostaining of cells or tissue
Conditions: one partner purified

Binder | binding result
B1 | binds
B2 | binds
B3 | binds
B4 | binds
B5 | binds
B6 | binds
B7 | binds
